From article PMC4051428 (Organic Letters, 2014)

Legend:
ChxH = target: T1, ChxH (Streptomyces sp. YIM 56141, UniProt I7D037); test: steady-state kinetics, initial velocity, Michaelis-Menten; conditions: read-out: apparent KM; saturating NADP+; reverse reaction 1 to 10
T1 sequence (I7D037 1-262): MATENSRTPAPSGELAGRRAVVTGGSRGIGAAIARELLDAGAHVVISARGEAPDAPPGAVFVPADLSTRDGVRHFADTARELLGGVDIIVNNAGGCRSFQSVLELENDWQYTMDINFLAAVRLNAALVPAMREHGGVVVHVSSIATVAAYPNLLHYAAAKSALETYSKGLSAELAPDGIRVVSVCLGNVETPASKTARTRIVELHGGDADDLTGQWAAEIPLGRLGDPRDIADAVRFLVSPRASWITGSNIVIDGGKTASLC

purified protein [1] = substrate: NC(=O)c1ccc[n+]([C@@H]2O[C@H](COP(=O)(O)OP(=O)(O)OC[C@H]3O[C@@H](n4cnc5c(N)ncnc54)[C@H](O)[C@@H]3O)[C@@H](O)[C@H]2O)c1; test: purified protein; conditions: saturating 1; reverse reaction 1 to 10; varied: cofactor
purified protein [2] = substrate: NC(=O)c1ccc[n+]([C@@H]2O[C@H](COP(=O)(O)OP(=O)(O)OC[C@H]3O[C@@H](n4cnc5c(N)ncnc54)[C@H](OP(=O)(O)O)[C@@H]3O)[C@@H](O)[C@H]2O)c1; test: purified protein; conditions: saturating 1; reverse reaction 1 to 10; varied: cofactor

Row | Molecule | Km (ChxH) [µM] | Km (purified protein [1]) [µM] | kcat (purified protein [1]) [min^–1] | Km (purified protein [2]) [µM] | kcat (purified protein [2]) [min^–1]
1 | C[C@@H]1C[C@@H]([C@H](O)CC2CC(=O)NC(=O)C2)C(=O)[C@@H](C)C1 [compound 1, Cycloheximide] | 99 ± 7 | – | – | – | –
2 | ChxH (Streptomyces sp. YIM 56141) (protein) MATENSRTPAPSGELAGRRAVVTGGSRGIGAAIARELLDAGAHVVISARGEAPDAPPGAVFVPADLSTRDGVRHFADTARELLGGVDIIVNNAGGCRSFQSVLELENDWQYTMDINFLAAVRLNAALVPAMREHGGVVVHVSSIATVAAYPNLLHYAAAKSALETYSKGLSAELAPDGIRVVSVCLGNVETPASKTARTRIVELHGGDADDLTGQWAAEIPLGRLGDPRDIADAVRFLVSPRASWITGSNIVIDGGKTASLC | – | 233 ± 37 | 13 ± 3 | 76 ± 5 | 387 ± 23
